Measurements from patent US6468985B1, “Retinoblastoma protein-interacting zinc finger proteins” (The Burnham Institute, priority 1994, dated 2002).

Key:
[1] = test system: Rb having a deletion within the pocket; assay: binding of GST-RIZ (245-573) to 35S-labeled Rb pocket deletion mutants, immunoprecipitation with anti-RIZ antiserum
Experimental: (§1) The 56 kD Rb fragment that binds to RIZ is a C-terminal fragment containing the Rb pocket binding region and a C-terminal extension. To further define the portion of 56 kD Rb that binds to RIZ, several Rb mutant polypeptides were tested for binding to RIZ. Mutant and full length Rb were cloned and in vitro transcribed/translated as described previously (Huang et al., supra, 1990). H209 is a point mutation resulting in a single amino acid change in Rb that was identified in the small cell lung cancer H209 cell line (American Type Culture Collection (ATCC) #HTB 172). The various Rb forms were tested for binding to glutathionine S-transferase (GST) fused to a fragment of RIZ from amino acid position 245-573 (GST-RIZ (245-573)). This RIZ fragment contains all of the E1A motifs related to binding Rb and was constructed by cloning a Stu I-Hpa I RIZ fragment (nucleotide 795-3068) into vector pBSK+ to make pBSK+SH. An Eco RI fragment was removed from pBSK+SH and ligated into pGEX-KG to produce vector pKG7.1S containing GST-RIZ (245-573).
(§2) The binding between purified GST-RIZ (245-573) and the above radiolabeled Rb wild-type and deletion mutants was determined by immunoprecipitation with an anti-RIZ antiserum followed by SDS-PAGE and autoradiography. […]

[2] = target: T1, B3 mutant of Rb (Homo sapiens, UniProt P06400); assay: binding of GST-RIZ (245-573) to 35S-labeled Rb mutant, immunoprecipitation with anti-RIZ antiserum; settings: deletion C-terminal to the Rb binding pocket
T1 construct: made in house; host or cells: in vitro transcription/translation
T1 sequence (P06400 1-803): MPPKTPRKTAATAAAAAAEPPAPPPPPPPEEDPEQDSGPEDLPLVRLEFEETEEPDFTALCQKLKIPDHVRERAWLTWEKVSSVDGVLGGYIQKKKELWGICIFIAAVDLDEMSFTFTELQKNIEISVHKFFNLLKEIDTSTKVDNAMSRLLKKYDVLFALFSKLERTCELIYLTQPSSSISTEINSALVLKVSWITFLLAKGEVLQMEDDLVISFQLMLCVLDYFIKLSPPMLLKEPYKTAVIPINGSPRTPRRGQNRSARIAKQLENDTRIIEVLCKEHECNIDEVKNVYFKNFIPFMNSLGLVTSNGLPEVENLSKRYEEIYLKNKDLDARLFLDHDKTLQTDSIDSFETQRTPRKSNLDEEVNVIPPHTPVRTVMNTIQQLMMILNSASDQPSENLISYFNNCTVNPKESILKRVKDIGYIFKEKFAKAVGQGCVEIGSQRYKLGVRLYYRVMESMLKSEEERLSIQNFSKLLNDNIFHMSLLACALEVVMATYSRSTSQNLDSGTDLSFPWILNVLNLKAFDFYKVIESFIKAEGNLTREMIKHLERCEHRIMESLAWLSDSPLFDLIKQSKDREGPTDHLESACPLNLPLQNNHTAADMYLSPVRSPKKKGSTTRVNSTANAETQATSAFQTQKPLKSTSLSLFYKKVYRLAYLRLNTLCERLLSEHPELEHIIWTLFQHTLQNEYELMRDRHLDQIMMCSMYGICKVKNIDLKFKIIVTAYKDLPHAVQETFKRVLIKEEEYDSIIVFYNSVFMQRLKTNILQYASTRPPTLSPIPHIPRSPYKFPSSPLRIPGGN
Experimental: as §1, §2

[3] = target: T2, RIZ (Rattus norvegicus, UniProt Q63755); assay: binding of anti-RIZ antiserum / anti-ce1 antibody to RIZ and RIZ truncation mutants; settings: addition of the immunogen
T2 construct: made in house; host or cells: in vitro transcription/translation (rabbit reticulocyte lysate)
T2 sequence (Q63755 245-883): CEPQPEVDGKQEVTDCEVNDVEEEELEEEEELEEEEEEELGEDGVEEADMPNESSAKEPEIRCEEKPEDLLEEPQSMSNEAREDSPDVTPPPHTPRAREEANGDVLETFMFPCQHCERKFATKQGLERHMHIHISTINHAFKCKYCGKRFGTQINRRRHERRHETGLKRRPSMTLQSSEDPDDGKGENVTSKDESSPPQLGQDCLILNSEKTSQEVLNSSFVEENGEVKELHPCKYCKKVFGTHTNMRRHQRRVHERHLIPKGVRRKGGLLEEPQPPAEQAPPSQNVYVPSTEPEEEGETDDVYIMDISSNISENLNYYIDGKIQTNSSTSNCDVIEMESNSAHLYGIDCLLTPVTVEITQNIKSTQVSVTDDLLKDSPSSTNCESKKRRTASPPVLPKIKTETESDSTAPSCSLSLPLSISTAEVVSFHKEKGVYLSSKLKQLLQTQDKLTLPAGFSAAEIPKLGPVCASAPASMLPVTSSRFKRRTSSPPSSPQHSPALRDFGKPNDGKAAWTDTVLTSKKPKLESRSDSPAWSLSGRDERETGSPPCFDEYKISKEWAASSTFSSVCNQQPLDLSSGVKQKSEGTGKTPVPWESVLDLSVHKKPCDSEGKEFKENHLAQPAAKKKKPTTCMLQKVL
Experimental: Anti-RIZ antibodies purified from the E1A affinity column were tested for binding to RIZ and E1A. […] The E1A-affinity purified RIZ antibodies were designated “anti-ce1” for cross reacting E1A antigen.
Anti-ce1 antibodies were tested for binding to various deletion mutants of RIZ and E1A 12S in order to map the location of the ce1 epitope on each molecule.
To evaluate this possibility, an 11 amino acid peptide encompassing residues 310-320 in RIZ (ce1 peptide) [sequence] (SEQ ID NO: 7) and an overlapping 11 amino acid control peptide encompassing residues 304-314 containing the cr2 core motif of RIZ, peptide [sequence] (SEQ ID NO: 6), were synthesized by solid phase peptide synthesis and tested for their ability to block binding between anti-ce1 antibody and RIZ or E1A.

- binding to three forms of Rb having a deletion within the pocket [1]: failed to bind
- binding to B3 mutant of Rb [2]: showed binding
- inhibition of anti-RIZ antiserum binding to RIZ (245-883) [3]: inhibited
B1: GST-RIZ (245-573): glutathionine S-transferase fused to RIZ fragment a.a. 245-573 containing zinc fingers 1-3 (protein)
chain: CEPQPEVDGKQEVTDCEVNDVEEEELEEEEELEEEEEEELGEDGVEEADMPNESSAKEPEIRCEEKPEDLLEEPQSMSNEAREDSPDVTPPPHTPRAREEANGDVLETFMFPCQHCERKFATKQGLERHMHIHISTINHAFKCKYCGKRFGTQINRRRHERRHETGLKRRPSMTLQSSEDPDDGKGENVTSKDESSPPQLGQDCLILNSEKTSQEVLNSSFVEENGEVKELHPCKYCKKVFGTHTNMRRHQRRVHERHLIPKGVRRKGGLLEEPQPPAEQAPPSQNVYVPSTEPEEEGETDDVYIMDISSNISENLNYYIDGKIQTNSS
modifications: left off: a dimerising Fc or GST
